# B1: SMA095 (SEQ ID NO: 101) (designed binder)
# chain: MRGSHHHHHHGSDLGKKLLEAARAGQDDEVRELLKAGADVNAKDYFSHTPLHLAARNGHLKIVEVLLKAGADVNAKDFAGKTPLHLAAADGHLEIVEVLLKAGADVNAQDIFGKTPADIAADAGHEDIAEVLQKAAGSPTPTPTTPTPTPTTPTPTPTGSDLGEKLLVAALYGQDDEVRELLKAGADVNAKDQWGLTPLHKAALQGHLEIVEVLLKAGADVNAKDERGHTPLHWAARFGHLEIVEVLLKAGADVNAQDQKGYTPADLAALWGHEDIAEVLQKAAGSPTPTPTTPTPTPTTPTPTPTGSDLGKKLLQAARAGQLDEVRELLKAGADVNAKDTWGFTPLHIAAESGHLEIVEVLLKAGADVNAKDVQGRTPLHIAAHSGHLEIVEVLLKAGADVNAKDFRGWTPLHLAAWSGHLEIVEILLKAGADVNAQDKSGKTPADLAARAGHQDIAEVLQKAAGSPTPTPTTPTPTPTTPTPTPTGSDLGKKLLEAARAGQDDEVRELLKAGADVNAKDYFSHTPLHLAARNGHLKIVEVLLKAGADVNAKDFAGKTPLHLAAADGHLEIVEVLLKAGADVNAQDIFGKTPADIAADAGHEDIAEVLQKAA
# B2: SMA105 (SEQ ID NO: 106) (designed binder)
# chain: MRGSHHHHHHGSDLGEKLLVAALYGQDDEVRELLKAGADVNAKDQWGLTPLHKAALQGHLEIVEVLLKAGADVNAKDERGHTPLHWAARFGHLEIVEVLLKAGADVNAQDQKGYTPADLAALWGHEDIAEVLQKAAGSPTPTPTTPTPTPTTPTPTPTGSDLGKKLLQAARAGQLDEVRELLKAGADVNAKDTWGFTPLHIAAESGHLEIVEVLLKAGADVNAKDVQGRTPLHIAAHSGHLEIVEVLLKAGADVNAKDFRGWTPLHLAAWSGHLEIVEILLKAGADVNAQDKSGKTPADLAARAGHQDIAEVLQKAAGSPTPTPTTPTPTPTTPTPTPTGSDLGKKLLQAARAGQLDEVRELLKAGADVNAKDTWGFTPLHIAAESGHLEIVEVLLKAGADVNAKDVQGRTPLHIAAHSGHLEIVEVLLKAGADVNAKDFRGWTPLHLAAWSGHLEIVEILLKAGADVNAQDKSGKTPADLAARAGHQDIAEVLQKAAGSPTPTPTTPTPTPTTPTPTPTGSDLGKKLLQAARAGQLDEVRELLKAGADVNAKDTWGFTPLHIAAESGHLEIVEVLLKAGADVNAKDVQGRTPLHIAAHSGHLEIVEVLLKAGADVNAKDFRGWTPLHLAAWSGHLEIVEILLKAGADVNAQDKSGKTPADLAARAGHQDIAEVLQKAA
# B3: SMA091 (SEQ ID NO: 103) (designed binder)
# chain: MRGSHHHHHHGSDLGKKLLEAARAGQDDEVRELLKAGADVNAKDYFSHTPLHLAARNGHLKIVEVLLKAGADVNAKDFAGKTPLHLAAADGHLEIVEVLLKAGADVNAQDIFGKTPADIAADAGHEDIAEVLQKAAGSPTPTPTTPTPTPTTPTPTPTGSDLGEKLLVAALYGQDDEVRELLKAGADVNAKDQWGLTPLHKAALQGHLEIVEVLLKAGADVNAKDERGHTPLHWAARFGHLEIVEVLLKAGADVNAQDQKGYTPADLAALWGHEDIAEVLQKAAGSPTPTPTTPTPTPTTPTPTPTGSDLGKKLLQAARAGQLDEVRELLKAGADVNAKDTWGFTPLHIAAESGHLEIVEVLLKAGADVNAKDVQGRTPLHIAAHSGHLEIVEVLLKAGADVNAKDFRGWTPLHLAAWSGHLEIVEILLKAGADVNAQDKSGKTPADLAARAGHQDIAEVLQKAAGSPTPTPTTPTPTPTTPTPTPTGSDLGKKLLQAARAGQLDEVRELLKAGADVNAKDTWGFTPLHIAAESGHLEIVEVLLKAGADVNAKDVQGRTPLHIAAHSGHLEIVEVLLKAGADVNAKDFRGWTPLHLAAWSGHLEIVEILLKAGADVNAQDKSGKTPADLAARAGHQDIAEVLQKAA
# B4: SMA014 (SEQ ID NO: 99) (designed binder)
# chain: MRGSHHHHHHGSDLGEKLLVAALYGQDDEVRELLKAGADVNAKDQWGLTPLHKAALQGHLEIVEVLLKAGADVNAKDERGHTPLHWAARFGHLEIVEVLLKAGADVNAQDQKGYTPADLAALWGHEDIAEVLQKAAGSPTPTPTTPTPTPTTPTPTPTGSDLGKKLLQAARAGQLDEVRELLKAGADVNAKDTWGFTPLHIAAESGHLEIVEVLLKAGADVNAKDVQGRTPLHIAAHSGHLEIVEVLLKAGADVNAKDFRGWTPLHLAAWSGHLEIVEILLKAGADVNAQDKSGKTPADLAARAGHQDIAEVLQKAA
# B5: AS579 (SEQ ID NO: 105) (designed binder)
# chain: MRGSHHHHHHGSDLGKKLLEAARAGQDDEVRELLKAGADVNAKDYFSHTPLHLAARNGHLKIVEVLLKAGADVNAKDFAGKTPLHLAAADGHLEIVEVLLKAGADVNAQDIFGKTPADIAADAGHEDIAEVLQKAAGSPTPTPTTPTPTPTTPTPTPTGSDLGKKLLEAARAGQDDEVRELLKAGADVNAKDYFSHTPLHLAARNGHLKIVEVLLKAGADVNAKDFAGKTPLHLAAADGHLEIVEVLLKAGADVNAQDIFGKTPADIAADAGHEDIAEVLQKAAGSPTPTPTTPTPTPTTPTPTPTGSDLGEKLLVAALYGQDDEVRELLKAGADVNAKDQWGLTPLHKAALQGHLEIVEVLLKAGADVNAKDERGHTPLHWAARFGHLEIVEVLLKAGADVNAQDQKGYTPADLAALWGHEDIAEVLQKAAGSPTPTPTTPTPTPTTPTPTPTGSDLGKKLLQAARAGQLDEVRELLKAGADVNAKDTWGFTPLHIAAESGHLEIVEVLLKAGADVNAKDVQGRTPLHIAAHSGHLEIVEVLLKAGADVNAKDFRGWTPLHLAAWSGHLEIVEILLKAGADVNAQDKSGKTPADLAARAGHQDIAEVLQKAAGSPTPTPTTPTPTPTTPTPTPTGSDLGKKLLQAARAGQLDEVRELLKAGADVNAKDTWGFTPLHIAAESGHLEIVEVLLKAGADVNAKDVQGRTPLHIAAHSGHLEIVEVLLKAGADVNAKDFRGWTPLHLAAWSGHLEIVEILLKAGADVNAQDKSGKTPADLAARAGHQDIAEVLQKAA
# B6: SMA099 (SEQ ID NO: 104) (designed binder)
# chain: MRGSHHHHHHGSDLGKKLLEAARAGQDDEVRELLKAGADVNAKDYFSHTPLHLAARNGHLKIVEVLLKAGADVNAKDFAGKTPLHLAAADGHLEIVEVLLKAGADVNAQDIFGKTPADIAADAGHEDIAEVLQKAAGSPTPTPTTPTPTPTTPTPTPTGSDLGEKLLVAALYGQDDEVRELLKAGADVNAKDQWGLTPLHKAALQGHLEIVEVLLKAGADVNAKDERGHTPLHWAARFGHLEIVEVLLKAGADVNAQDQKGYTPADLAALWGHEDIAEVLQKAAGSPTPTPTTPTPTPTTPTPTPTGSDLGKKLLQAARAGQLDEVRELLKAGADVNAKDTWGFTPLHIAAESGHLEIVEVLLKAGADVNAKDVQGRTPLHIAAHSGHLEIVEVLLKAGADVNAKDFRGWTPLHLAAWSGHLEIVEILLKAGADVNAQDKSGKTPADLAARAGHQDIAEVLQKAAGSPTPTPTTPTPTPTTPTPTPTGSDLGKKLLQAARAGQLDEVRELLKAGADVNAKDTWGFTPLHIAAESGHLEIVEVLLKAGADVNAKDVQGRTPLHIAAHSGHLEIVEVLLKAGADVNAKDFRGWTPLHLAAWSGHLEIVEILLKAGADVNAQDKSGKTPADLAARAGHQDIAEVLQKAAGSPTPTPTTPTPTPTTPTPTPTGSDLGKKLLEAARAGQDDEVRELLKAGADVNAKDYFSHTPLHLAARNGHLKIVEVLLKAGADVNAKDFAGKTPLHLAAADGHLEIVEVLLKAGADVNAQDIFGKTPADIAADAGHEDIAEVLQKAA
# Target: T1, CD40 receptor on cells (HEK293 reporter cells expressing CD40; primary human B cells) (human, UniProt P25942 21-277)
# T1 sequence (P25942 21-277): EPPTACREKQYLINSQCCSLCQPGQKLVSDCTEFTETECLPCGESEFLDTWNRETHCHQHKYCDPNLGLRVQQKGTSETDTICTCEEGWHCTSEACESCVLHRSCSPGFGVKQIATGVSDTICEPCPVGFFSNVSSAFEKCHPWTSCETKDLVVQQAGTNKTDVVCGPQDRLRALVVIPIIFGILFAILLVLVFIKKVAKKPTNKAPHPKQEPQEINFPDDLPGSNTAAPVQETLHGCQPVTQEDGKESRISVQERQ
# Test: cell-based or functional assay
Binder,"EC50 [nM], % CD86, human B cells with FAP-CHO, w/o HSA","EC50 [nM], MFI CD86, human B cells with FAP-CHO, w/o HSA","EC50 [nM], % CD86, human B cells with FAP-CHO, w HSA","EC50 [nM], MFI CD86, human B cells with FAP-CHO, w HSA"
B1,89.8 nM,288 nM,–,–
B2,0.11 nM,0.33 nM,–,–
B3,0.76 nM,3.93 nM,2.98 nM,8.05 nM
B4,4.21 nM,8.46 nM,6.15 nM,7.7 nM
B5,2.27 nM,10 nM,10.2 nM,23.1 nM
B6,4.68 nM,18.2 nM,7.5 nM,19.4 nM

# Target: T1, CD40 receptor on cells (HEK293 reporter …)
# Test: cell-based or functional assay
# Remark: another data set of the same source
Binder,"Efficacy [MFI at highest dose], MFI CD86, human B cells with FAP-CHO, w HSA","Efficacy [MFI at highest dose], MFI CD86, human B cells with FAP-CHO, w/o HSA","Efficacy at highest dose, % CD86, human B cells with FAP-CHO, w/o HSA","Efficacy at highest dose, % CD86, human B cells with FAP-CHO, w HSA"
B1,232 MFI,773 MFI,28.7%,–
B2,–,5560 MFI,87.2%,–
B3,2980 MFI,6230 MFI,78.2%,75.6%
B4,2190 MFI,2440 MFI,48.4%,47%
B5,1780 MFI,4860 MFI,83%,71.9%
B6,1720 MFI,4950 MFI,84.4%,71.7%

# Target: T1, CD40 receptor on cells (HEK293 reporter …)
# Test: cell-based or functional assay
# Remark: another data set of the same source
Binder,"Efficacy [MFI at highest dose], MFI CD86, human B cells with WT-CHO (no FAP), w HSA","Efficacy [MFI at highest dose], MFI CD86, human B cells with WT-CHO (no FAP), w/o HSA","Efficacy at highest dose, % CD86, human B cells with WT-CHO (no FAP), w HSA","Efficacy at highest dose, % CD86, human B cells with WT-CHO (no FAP), w/o HSA"
B1,306 MFI,299 MFI,13.7%,12.5%
B2,–,672 MFI,–,69.2%
B3,296 MFI,290 MFI,43.1%,47.8%
B4,310 MFI,294 MFI,13.3%,13.2%
B5,242 MFI,252 MFI,40.1%,42%
B6,274 MFI,289 MFI,42.5%,47.4%

# Source: patent US20240279309A1 (Molecular Partners, published 2024)
